Results on one molecule are retold here after patent US11857697B2, “Compositions and methods for obtaining 3-dimensional lung-like epithelium and related uses thereof” (THE REGENTS OF THE UNIVERSITY OF MICHIGAN, priority 2017, dated 2024).

Entries after “also recorded” stand apart in the source; their conditions may differ.

Holding throughout (type): cell-based
Assay [1] has as its system hPSC-derived human lung organoids (HLOs). The assay can be described thus: Marker expression (QRT-PCR, immunofluorescence) in HLOs. Conditions: 42 days 3F then 26 days FGF7 only. The procedure:
Based on results in the mouse showing that FGF7 was permissive for differentiation (FIG. 1), experiments were conducted that hypothesized that removing CHIR-99021 and RA from HLOs grown in 3F media would reduce the number of progenitor cells and increase differentiation of mature cell types within HLO cultures. Foregut spheroids were collected and grown in 3F media for 42 days and were cultured for an additional 26 days in 3F media (control) or media containing FGF7 only (FIG. 10A). […] At the end of the experiment, cultures were collected and assessed for gene and protein expression.
(§1) RNA was extracted using the MagMAX-96 Total RNA Isolation System (Life Technologies). RNA quality and concentration was determined on a Nanodrop 2000 spectrophotometer (Thermo Scientific). 100 ng of RNA was used to generate a cDNA library using the SuperScript VILO cDNA master mix kit (Invitrogen) according to manufacturer's instructions. qRT-PCR analysis was conducted using Quantitect SYBR Green Master Mix (Qiagen) on a Step One Plus Real-Time PCR system (Life Technologies). Expression was calculated as a change relative to GAPDH expression using arbitrary units, which were calculated by the following equation: [2^(GAPDH Ct−Gene Ct)]×10,000. A Ct value of 40 or greater was considered not detectable. A list of primer sequences used can be found in Table 1.
(§2) Mouse bud, human bud, and HLO tissue was fixed in 4% Paraformaldehyde (Sigma) for 2 hours and rinsed in PBS overnight. Tissue was dehydrated in an alcohol series, with 30 minutes each in 25%, 50%, 75% Methanol:PBS/0.05% Tween-20, followed by 100% Methanol, and then 100% Ethanol. Tissue was processed into paraffin using an automated tissue processor (Leica ASP300). Paraffin blocks were sectioned 5-7 uM thick, and immunohistochemical staining was performed as previously described (Spence et al., 2009). A list of antibodies, antibody information and concentrations used can be found in Table 2. PAS Alcian blue staining was performed using the Newcomer supply Alcian Blue/PAS Stain kit (Newcomer Supply, Inc.) according to manufacturer's instructions.

Another assay concerns human fetal lung buds. The assay can be described thus: Marker expression (QRT-PCR, immunostaining) in cultured human fetal lung buds. On the procedure:
as §1
as §2, with “PAS Alcian blue staining was performed using the Newcomer supply Alcian Blue/PAS Stain kit (Newcomer Supply, Inc.) according to manufacturer's instructions.” left out

Assay [2] concerns 12 week human fetal distal epithelial lung buds. The assay can be described thus: Isolated human fetal lung bud culture in Matrigel: growth/expansion. Conditions: FGF7 alone, 2, 4 and 6 weeks in culture. The text has this: All research utilizing human fetal tissue was approved by the University of Michigan institutional review board. Normal human fetal lungs were obtained from the University of Washington Laboratory of Developmental Biology, and epithelial lung buds were dissected as described below. All experiments were repeated using tissues from 3 individual lungs; 84 day post fertilization of unknown gender, 87 day post fertilization male, and 87 day post fertilization of unknown gender. All tissues were shipped in Belzer's solution at 4 degrees Celsius and were processed and in culture within 24 hours of isolation.
Isolated mouse buds were cultured in 4-6 μl droplets of matrigel, covered with media, and kept at 37 degrees Celsius with 5% Carbon Dioxide. Isolated human fetal lung buds were cultured in 25-50 μl droplets of matrigel, covered with media, and kept at 37 degrees Celsius with 5% Carbon Dioxide.
Distal regions of 12 week fetal lungs were cut into ˜2 mm sections and incubated with dispase, 100% FBS and then 10% FBS as described above, and moved to a sterile petri dish. Mesenchyme was removed by repeated pipetting of distal lung pieces after dispase treatment. Buds were washed with DMEM until mesenchymal cells were no longer visible in the media. Buds were then moved to a 1.5 mL eppendorf tube containing 200 uL of Matrigel, mixed using a p200 pipette, and plated in ˜20 uL droplets in a 24 well tissue culture plate. Plates were placed at 37 degrees Celsius with 5% CO2 for 20 minutes while droplets solidified. 500 uL of media was added to each well containing a droplet. Media was changed every 2-3 days.
All mouse bud, human fetal bud, and hPSC-derived human lung organoids were grown in low-serum basal media (basal media) with added growth factors. […]

B1: Recombinant Human Fibroblast Growth Factor 7 (protein, UniProt P21781 32-194, looked up)
Fibroblast growth factor 7: CNDMTPEQMATNVNCSSPERHTRSYDYMEGGDIRVRRLFCRTQWYLRIDKRGKVKGTQEMKNNYNIMEIRTVAVGIVAIKGVESEFYLAMNKEGKLYAKKECNEDCNFKELILENHYNTYASAKWTHNGGEMFVALNQKGIPVRGKKTKKEQKTAHFLPMAIT
notes: Recombinant human growth factor from R&D systems, used at 10 ng/mL unless otherwise noted
Consider B1, for which, in assay [1] (versus 3F), the “AECI marker HOPX gene expression” value is given as “increased gene expression”; the “AECII marker SFTPC protein and mRNA expression” value was “increase in both protein and mRNA expression”; the “FOXJ1 mRNA expression (QRT-PCR)” value was “increased significantly”; the “MUC5AC gene expression (QRT-PCR)” value is on record as “significant increase”. Besides, in assay [1] (versus 3F), the “P63 mRNA expression (QRT-PCR)” value was “significant increase in mRNA expression”, the “SOX2 transcript (QRT-PCR)” value was “significant increase” and the “SOX9 transcript (QRT-PCR)” value was “no change”. Besides, the “Increase of SCGB1A1 mRNA level over 3F controls” value in assay [1] (not statistically significant) is around 100 fold. Besides, the “Expression of proximal airway markers P63 and SCGB1A1 (QRT-PCR)” value with human fetal lung buds (4 weeks in culture, compared to 14 week old human fetal lung) is “significantly increased expression”. Besides, the “SOX9 and SOX2 immunostaining” value with human fetal lung buds (sections and wholemount, 4 weeks in vitro) is given as “expressed both markers, but strong cytoplasmic SOX9 localization was observed”. Also, the “Growth of human fetal lung buds in vitro” value in assay [2] was “robust growth in vitro after 2 and 4 weeks, but resulted in reduced growth after 6 weeks; also recorded: supported an initial expansion of buds, but the tissue stopped expanding beyond the 4 week period”.
